In test [1] the target is WWP1, endogenous in HEK293T, Q9H0M0. Briefly: co-immunoprecipitation of ALFA-TXNIP, label-free quantitative interactome (mass spectrometry). Conditions: chain shown with the change, immunoprecipitated from HEK293T cells, n = 3, read off a plot; for response (normalized abundance): abundances normalized to unspecific background binding to empty beads, scatter plot.
Test [2] deals with T1, NEDD4, endogenous in HEK293T, P46934.
T1 chain: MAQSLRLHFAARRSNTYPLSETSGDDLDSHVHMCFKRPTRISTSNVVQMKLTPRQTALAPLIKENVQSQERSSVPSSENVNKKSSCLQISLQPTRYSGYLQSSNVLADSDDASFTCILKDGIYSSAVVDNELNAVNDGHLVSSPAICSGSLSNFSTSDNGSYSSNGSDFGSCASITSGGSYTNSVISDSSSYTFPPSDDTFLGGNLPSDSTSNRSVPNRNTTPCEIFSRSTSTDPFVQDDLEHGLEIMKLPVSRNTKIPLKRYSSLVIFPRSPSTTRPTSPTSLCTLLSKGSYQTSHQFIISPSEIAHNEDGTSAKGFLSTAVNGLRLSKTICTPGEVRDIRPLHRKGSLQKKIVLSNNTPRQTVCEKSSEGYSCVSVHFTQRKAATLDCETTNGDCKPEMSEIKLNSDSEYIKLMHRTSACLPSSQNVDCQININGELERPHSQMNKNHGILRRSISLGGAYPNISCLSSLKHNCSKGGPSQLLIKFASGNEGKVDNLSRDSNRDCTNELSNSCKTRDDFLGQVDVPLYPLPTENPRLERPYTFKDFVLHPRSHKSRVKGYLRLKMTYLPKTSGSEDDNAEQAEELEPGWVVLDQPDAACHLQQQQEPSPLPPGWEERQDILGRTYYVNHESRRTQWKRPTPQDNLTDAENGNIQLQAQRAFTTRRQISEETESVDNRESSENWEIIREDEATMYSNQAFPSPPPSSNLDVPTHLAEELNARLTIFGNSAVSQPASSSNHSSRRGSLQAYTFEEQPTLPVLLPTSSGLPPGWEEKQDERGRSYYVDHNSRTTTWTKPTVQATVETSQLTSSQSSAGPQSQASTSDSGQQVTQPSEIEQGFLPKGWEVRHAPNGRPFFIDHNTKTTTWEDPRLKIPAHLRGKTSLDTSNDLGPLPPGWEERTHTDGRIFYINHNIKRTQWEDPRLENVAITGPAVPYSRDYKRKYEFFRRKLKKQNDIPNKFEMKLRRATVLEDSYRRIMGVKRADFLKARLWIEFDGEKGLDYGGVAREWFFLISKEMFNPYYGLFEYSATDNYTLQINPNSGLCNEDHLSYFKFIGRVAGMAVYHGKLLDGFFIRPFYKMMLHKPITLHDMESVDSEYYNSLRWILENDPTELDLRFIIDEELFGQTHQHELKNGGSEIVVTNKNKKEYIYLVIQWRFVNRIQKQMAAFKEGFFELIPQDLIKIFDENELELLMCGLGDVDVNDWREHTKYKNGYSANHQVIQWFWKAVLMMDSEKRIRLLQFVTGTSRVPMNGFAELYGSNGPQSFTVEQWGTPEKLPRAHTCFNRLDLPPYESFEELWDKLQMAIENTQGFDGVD
Described as above. The following applies: chain shown with the change, immunoprecipitated from HEK293T cells, n = 3, read off a plot; for response (normalized abundance): abundances normalized to unspecific background binding to empty beads, scatter plot.

In test [3] the target is WWP2, endogenous in HEK293T, O00308. The test is described as above. The following applies: chain shown with the change, immunoprecipitated from HEK293T cells, n = 3, read off a plot; for response (normalized abundance): abundances normalized to unspecific background binding to empty beads, scatter plot.
Test [4] addresses T2, YFP-NEDD4, P46934.
T2 chain: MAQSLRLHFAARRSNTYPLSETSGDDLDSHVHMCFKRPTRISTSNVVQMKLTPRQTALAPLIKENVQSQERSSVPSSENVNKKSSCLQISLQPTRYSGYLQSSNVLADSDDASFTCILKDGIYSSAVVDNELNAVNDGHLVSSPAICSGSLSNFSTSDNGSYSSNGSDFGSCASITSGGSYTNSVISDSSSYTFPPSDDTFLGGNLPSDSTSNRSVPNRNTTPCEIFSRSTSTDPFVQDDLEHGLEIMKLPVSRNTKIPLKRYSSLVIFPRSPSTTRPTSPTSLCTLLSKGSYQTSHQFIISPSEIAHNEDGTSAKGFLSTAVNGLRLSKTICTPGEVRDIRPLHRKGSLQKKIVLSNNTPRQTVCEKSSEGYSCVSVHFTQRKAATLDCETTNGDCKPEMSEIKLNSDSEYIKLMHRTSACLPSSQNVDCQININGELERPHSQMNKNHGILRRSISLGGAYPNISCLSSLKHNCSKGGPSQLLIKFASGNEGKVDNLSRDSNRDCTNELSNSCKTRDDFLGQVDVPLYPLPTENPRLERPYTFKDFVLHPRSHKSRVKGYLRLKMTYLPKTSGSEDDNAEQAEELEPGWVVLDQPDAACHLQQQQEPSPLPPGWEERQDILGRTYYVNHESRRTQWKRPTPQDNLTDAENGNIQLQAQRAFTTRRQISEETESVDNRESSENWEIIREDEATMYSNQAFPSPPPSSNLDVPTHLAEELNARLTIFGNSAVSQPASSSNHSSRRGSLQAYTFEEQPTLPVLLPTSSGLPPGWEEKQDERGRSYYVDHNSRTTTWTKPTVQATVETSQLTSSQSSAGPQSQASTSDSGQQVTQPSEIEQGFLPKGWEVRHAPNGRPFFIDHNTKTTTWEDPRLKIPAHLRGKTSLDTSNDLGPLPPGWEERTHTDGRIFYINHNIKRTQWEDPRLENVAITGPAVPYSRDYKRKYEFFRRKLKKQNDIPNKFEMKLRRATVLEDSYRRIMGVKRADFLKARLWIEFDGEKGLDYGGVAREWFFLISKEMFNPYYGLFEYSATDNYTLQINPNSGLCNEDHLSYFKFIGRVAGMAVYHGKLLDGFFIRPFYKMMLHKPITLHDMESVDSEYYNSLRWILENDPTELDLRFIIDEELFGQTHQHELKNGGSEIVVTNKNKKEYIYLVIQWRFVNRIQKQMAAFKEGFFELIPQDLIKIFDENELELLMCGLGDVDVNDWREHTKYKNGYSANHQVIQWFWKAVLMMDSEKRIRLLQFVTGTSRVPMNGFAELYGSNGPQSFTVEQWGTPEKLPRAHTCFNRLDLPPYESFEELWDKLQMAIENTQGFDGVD
Description: bead binding assay, fluorescence microscopy of YFP-NEDD4 on ALFA-TXNIP beads. The following applies: chain shown with the change, value is the box-plot median, n = 40 beads, lysate of HEK293T cells over-expressing YFP-NEDD4, ctrl beads est. 20, parent: est. 38, read off a plot.

WWP2, endogenous in HEK293T, O00308, sequence (O00308 whole entry): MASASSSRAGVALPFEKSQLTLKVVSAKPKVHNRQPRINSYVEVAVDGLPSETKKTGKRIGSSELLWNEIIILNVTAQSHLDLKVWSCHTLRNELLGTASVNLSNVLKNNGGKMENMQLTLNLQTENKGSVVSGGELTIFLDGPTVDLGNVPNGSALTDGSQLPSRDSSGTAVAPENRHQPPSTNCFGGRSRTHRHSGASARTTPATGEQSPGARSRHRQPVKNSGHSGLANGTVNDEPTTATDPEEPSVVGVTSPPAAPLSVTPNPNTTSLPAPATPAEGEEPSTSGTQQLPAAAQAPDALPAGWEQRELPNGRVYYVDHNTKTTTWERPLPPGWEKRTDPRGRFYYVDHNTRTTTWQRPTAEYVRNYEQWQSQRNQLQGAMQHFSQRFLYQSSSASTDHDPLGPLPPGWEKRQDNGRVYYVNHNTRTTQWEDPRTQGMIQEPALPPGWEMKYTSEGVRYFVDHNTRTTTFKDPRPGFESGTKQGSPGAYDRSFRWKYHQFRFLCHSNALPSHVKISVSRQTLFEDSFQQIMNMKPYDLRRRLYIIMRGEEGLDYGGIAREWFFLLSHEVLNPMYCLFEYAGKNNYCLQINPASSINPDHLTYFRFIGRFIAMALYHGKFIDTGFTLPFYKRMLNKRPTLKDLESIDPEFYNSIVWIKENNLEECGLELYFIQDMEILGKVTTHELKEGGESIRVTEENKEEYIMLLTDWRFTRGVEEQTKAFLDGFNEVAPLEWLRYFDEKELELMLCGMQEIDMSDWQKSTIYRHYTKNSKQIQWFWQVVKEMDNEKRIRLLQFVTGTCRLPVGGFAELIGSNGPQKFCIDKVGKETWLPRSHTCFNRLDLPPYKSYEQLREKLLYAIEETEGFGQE

B1: ALFA-tagged TXNIP (thioredoxin interacting protein), expressed in HEK293T, Q9H3M7 PPCY331AACA (protein)
chain: MVMFKKIKSFEVVFNDPEKVYGSGEKVAGRVIVEVCEVTRVKAVRILACGVAKVLWMQGSQQCKQTSEYLRYEDTLLLEDQPTGENEMVIMRPGNKYEYKFGFELPQGPLGTSFKGKYGCVDYWVKAFLDRPSQPTQETKKNFEVVDLVDVNTPDLMAPVSAKKEKKVSCMFIPDGRVSVSARIDRKGFCEGDEISIHADFENTCSRIVVPKAAIVARHTYLANGQTKVLTQKLSSVRGNHIISGTCASWRGKSLRVQKIRPSILGCNILRVEYSLLIYVSVPGSKKVILDLPLVIGSRSGLSSRTSSMASRTSSEMSWVDLNIPDTPEAAACAMDVIPEDHRLESPTTPLLDDMDGSQDSPIFMYAPEFKFMPPPTYTEVDPCILNNNVQ
Consider B1, for which the figures for the response (normalized abundance) in test [1] (parent: est. 3.2e8), in test [2] (parent: est. 4.5e8) and in test [3] (parent: est. 1.4e9) were 8.5e+07, 1.2e+08 and 4.5e+08, respectively. The other: log2 PPxY331/WT in test [1] was -1.5 log2; in test [2], -1.7 log2; in test [3], -1.8 log2. Besides, in test [4] (printed p=0.2365 against ALFA-TXNIP), the response amounted to 35 A.U.

B2: ALFA-tagged TXNIP (thioredoxin interacting protein), expressed in HEK293T, Q9H3M7 PPCY331AACA; PPTY375AATA (protein)
chain: MVMFKKIKSFEVVFNDPEKVYGSGEKVAGRVIVEVCEVTRVKAVRILACGVAKVLWMQGSQQCKQTSEYLRYEDTLLLEDQPTGENEMVIMRPGNKYEYKFGFELPQGPLGTSFKGKYGCVDYWVKAFLDRPSQPTQETKKNFEVVDLVDVNTPDLMAPVSAKKEKKVSCMFIPDGRVSVSARIDRKGFCEGDEISIHADFENTCSRIVVPKAAIVARHTYLANGQTKVLTQKLSSVRGNHIISGTCASWRGKSLRVQKIRPSILGCNILRVEYSLLIYVSVPGSKKVILDLPLVIGSRSGLSSRTSSMASRTSSEMSWVDLNIPDTPEAAACAMDVIPEDHRLESPTTPLLDDMDGSQDSPIFMYAPEFKFMPAATATEVDPCILNNNVQ
For the molecule B2, the response (normalized abundance) in test [1] (parent: est. 3.5e8) is 1.6e+06; in test [2] (parent: est. 5.0e8), 1e+08; in test [3] (parent: est. 1.3e9), 800000. For the same molecule, the other: log2 PPxY/WT is -3 log2 in test [1] (volcano plot) and -2.2 log2 in test [2] (volcano plot). Moreover, the response in test [4] (printed p<0.0001 against ALFA-TXNIP) was 19 A.U.

The record behind these values is PMC12669767.
